Results taken from patent US20260125469A1 (Hoffmann-La Roche, published 2026).
Positions count from the first letter of the chain named. Numbers in names are those of the source. Where two headings read alike, the source gives them in different places. Blank lines part the entries; values can stand above or below the binder they belong to.

Experiments:
[1] = molecular target: human CD3 on cells (CD3ε) (human, UniProt P07766 23-207); test: cell-based or functional assay
[2] = molecular target: T1, Human CD3ε stalk-Fc(knob)-Avi/CD3δ stalk-Fc(hole) (human); test: SPR, TCB captured by anti-PG antibody, antigen as analyte, 25°C
T1 construct: Heterodimer of CD3 delta and CD3 epsilon ectodomains fused to human Fc with knob-into-hole; also called human CD3ε/δ; CD3 antigen
Description: (§1) For affinity measurements, TCB molecules were captured on a C1 sensorchip (GE Healthcare) surface with immobilized anti-Fc(P329G) IgG (an antibody that specifically binds human IgG₁ Fc(P329G); “anti-PG antibody”—see WO 2017/072210, incorporated herein by reference). The experimental setup is schematically depicted in FIG. 3. Capture IgG was coupled to the sensorchip surface by direct immobilization of around 400 resonance units (RU) using the standard amine coupling kit (GE Healthcare Life Sciences).
(§2) Kinetic constants were derived using the Biacore T200 Evaluation Software (GE Healthcare Life Sciences), to fit rate equations for 1:1 Langmuir binding by numerical integration. The half-life (t_{1/2}) of the interaction was calculated using the formula t_{1/2}=ln2/koff.
(§3) To analyze the interaction to CD3, TCB molecules were captured for 240 s at 25 nM with a flow rate of 10 μl/min. Human and cynomolgus CD3F stalk-Fc(knob)-Avi/CD36-stalk-Fc(hole) were passed at a concentration of 0.14-100 nM with a flow rate of […] through the flow cells for 240 s. The dissociation was monitored for 800 s.

[3] = molecular target: T2, Cynomolgus CD3ε stalk-Fc(knob)-Avi/CD3δ stalk-Fc(hole) (cynomolgus); test: as above
T2 construct: also called cynomolgus CD3ε/δ
Description: as §1, §2, §3

[4] = molecular target: T1, Human CD3ε stalk-Fc(knob)-Avi/CD3δ …; test: SPR on immobilized human CD3ε/δ after stress, relative to sample kept at -80°C pH 6
Procedure: (§4) In order to assess the effect of the deamidation site removal and its effect on the stability of the antibodies, the optimized anti-CD3 antibodies (in TCB format) were incubated for 14 days at 37° C., pH 7.4 and at 40° C., pH 6 and further analyzed by SPR for their binding capability to human CD3ε/δ. Samples stored at −80° C. pH 6 were used as reference. The reference samples and the samples stressed at 40° C. were in 20 mM His, 140 mM NaCl, pH 6.0, and the samples stressed at 37° C. in PBS, pH 7.4, all at a concentration of 1.0 mg/ml. After the stress period (14 days) samples in PBS were dialyzed back to 20 mM His, 140 mM NaCl, pH 6.0 for further analysis.
(§5) All SPR experiments were performed on a Biacore T200 instrument (GE Healthcare) at 25° C. with HBS-P+ (10 mM HEPES, 150 mM NaCl pH 7.4, 0.05% Surfactant P20) as running and dilution buffer. Biotinylated human CD3ε/δ (see Example 3, SEQ ID NOs 41 and 42) as well as biotinylated anti-huIgG (Capture Select, Thermo Scientific, #7103262100) were immobilized on a Series S Sensor Chip SA (GE Healthcare, #29104992), resulting in surface densities of at least 1000 resonance units (RU). Anti-CD3 antibodies with a concentration of 2 μg/ml were injected for 30 s at a flow rate of 5 μl/min, and dissociation was monitored for 120 s. The surface was regenerated by injecting 10 mM glycine pH 1.5 for 60 s. Bulk refractive index differences were corrected by subtracting blank injections and by subtracting the response obtained from a blank control flow cell. For evaluation, the binding response 5 seconds after injection end was taken. To normalize the binding signal, the CD3 binding was divided by the anti-huIgG response (the signal (RU) obtained upon capture of the CD3 antibody on the immobilized anti-huIgG antibody). The relative binding activity was calculated by referencing each temperature stressed sample to the corresponding, non-stressed sample.
The experiment was performed as described in Example 4, using the TCB molecules prepared in Example 7.

[5] = molecular target: T3, human GPRC5D on stably transduced CHO-K1 cells (human, UniProt Q9NZD1 1-345); test: flow cytometry on CHO-K1 cells stably transduced with human GPRC5D, performed as in Example 11
T3 construct: whole, on cells; also called CHO-hGPRC5D cells
T3 sequence (Q9NZD1 whole entry): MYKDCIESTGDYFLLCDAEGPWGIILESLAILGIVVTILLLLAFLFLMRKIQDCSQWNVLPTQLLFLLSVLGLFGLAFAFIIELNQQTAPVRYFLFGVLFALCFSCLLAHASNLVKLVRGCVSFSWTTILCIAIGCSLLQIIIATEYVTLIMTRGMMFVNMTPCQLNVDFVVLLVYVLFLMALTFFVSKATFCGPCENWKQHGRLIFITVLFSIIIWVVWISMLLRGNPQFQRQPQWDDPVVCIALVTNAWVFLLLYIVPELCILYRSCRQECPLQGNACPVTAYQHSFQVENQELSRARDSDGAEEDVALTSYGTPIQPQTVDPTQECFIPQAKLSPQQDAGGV
Procedure: The binding of the CEACAM5-TCB molecules prepared in Example 7 was tested on CEACAM5 (CEA)-positive tumor cells (LS-180 cells, ECACC #87021202) and CD3-expressing immortalized T lymphocyte cells (GloResponse Jurkat NFAT-RE-luc2P; Promega, #CS176501). Briefly, adherent LS-180 cells were detached, using Cell Dissociation Buffer (Gibco), counted, checked for viability and re-suspended at 2 million cells per ml in FACS buffer (PBS with 0.1% BSA). Likewise, Jurkat suspension cells were harvested and plated for subsequent stainings. 100 μl of the cell suspension (containing 0.2 million cells) were incubated in round-bottom 96-well plates for 30 min at 4° C. with increasing concentrations of the CEACAM5-TCB molecules (4 pM-300 nM). Cells were washed twice with cold PBS 0.1% BSA (FACS buffer), re-incubated for further 30 min at 4° C. with the Alexa Fluor 647-conjugated AffiniPure F(ab′)2 Fragment Goat Anti-Human IgG, Fcγ Fragment Specific Antibody (Jackson Immuno Research Lab #109-606-008, diluted 1:50 in FACS buffer) and washed twice with cold PBS 0.1% BSA thereafter. The staining was fixed for 20 min at 4° C. in the dark, using 150 μl of 2% PFA in FACS buffer per well. Fluorescence was analyzed by FACS using a FACS Fortessa (Software FACS Diva). Binding curves were obtained using GraphPadPrism6.
The binding of the GPRC5D-TCB molecules prepared in Example 7 was tested using CHO-transfectants stably transduced to express human GPRC5D (CHO-K1, ATCC) and CD3-expressing immortalized T lymphocyte cells (GloResponse Jurkat NFAT-RE-luc2P; Promega, #CS176501). The experiment was performed as described in Example 11.

[6] = molecular target: T1, Human CD3ε stalk-Fc(knob)-Avi/CD3δ …; test: SPR, TCB captured by anti-PG antibody, antigen as analyte, 25°C; remark: listed apart in the source
[7] = molecular target: T1, Human CD3ε stalk-Fc(knob)-Avi/CD3δ …; test: as above; remark: listed apart in the source
Description: as §1
(§6) To analyze the interaction to CD3, TCB molecules were captured for 80 s at 25 nM with a flow rate of 10 μl/min. […] The dissociation was monitored for 800 s.
as §2

[8] = molecular target: T2, Cynomolgus CD3ε stalk-Fc(knob)-Avi/CD3δ …; test: as above; remark: listed apart in the source
Description: as §1, §6, §2

[9] = molecular target: T1, Human CD3ε stalk-Fc(knob)-Avi/CD3δ …; test: SPR on immobilized human CD3ε/δ after stress, relative to sample kept at -80°C pH 6; remark: listed apart in the source
Procedure: as §4, §5

Chain of human CD3 on cells (CD3ε) (P07766 23-207 limits assumed): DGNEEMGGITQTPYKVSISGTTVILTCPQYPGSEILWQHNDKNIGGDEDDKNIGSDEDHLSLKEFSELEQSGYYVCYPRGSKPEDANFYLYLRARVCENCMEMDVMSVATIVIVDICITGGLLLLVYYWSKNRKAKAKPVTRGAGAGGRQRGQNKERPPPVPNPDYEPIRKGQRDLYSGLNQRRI

EC50 20 h (pM), T-cell mediated lysis of GPRC5D-expressing NCI-H929 cells [1]: 0.41 pM
Kd [2]: 547 pM
koff [2]: 0.000948 s⁻¹
kon [2]: 1.74e+06 M⁻¹ s⁻¹
t1/2 [2]: 12.2 min
Kd [3]: 333 pM
koff [3]: 0.000688 s⁻¹
kon [3]: 2.07e+06 M⁻¹ s⁻¹
t1/2 [3]: 16.8 min
binding activity [%] after 2 weeks at pH 6.0/40°C [4]: 99%
binding activity [%] after 2 weeks at pH 7.4/37°C [4]: 98%
binding result [5]: binds
B1: GPRC5D-TCB, GPRC5D CD3 variant P033.078 (bispecific antibody, human IgG1, kappa, L234A L235A)
heavy 1: not shown
heavy 2: EVQLVESGGGVVQPGRSLRLSCAASGFSFSNYGMAWVRQAPGKGLEWVASISTGGGNTYYRDSVKGRFTISRDNAKNTLYLQMNSLRAEDTAVYYCTRHDRGGLYWGQGTMVTVSSASTKGPSVFPLAPSSKSTSGGTAALGCLVEDYFPEPVTVSWNSGALTSGVHTFPAVLQSSGLYSLSSVVTVPSSSLGTQTYICNVNHKPSNTKVDEKVEPKSCDKTHTCPPCPAPEAAGGPSVFLFPPKPKDTLMISRTPEVTCVVVDVSHEDPEVKFNWYVDGVEVHNAKTKPREEQYNSTYRVVSVLTVLHQDWLNGKEYKCKVSNKALGAPIEKTISKAKGQPREPQVCTLPPSRDELTKNQVSLSCAVKGFYPSDIAVEWESNGQPENNYKTTPPVLDSDGSFFLVSKLTVDKSRWQQGNVFSCSVMHEALHNHYTQKSLSLSP
light 1: DIVMTQSPLSLPVTPGEPASISCRSSKSLLHSNGITYVYWYLQKPGQSPQLLIYRMSNRASGVPDRFSGSGSGTDFTLKISRVEAEDVGVYHCGQLLENPYTFGQGTKLEIKRTVAAPSVFIFPPSDRKLKSGTASVVCLLNNFYPREAKVQWKVDNALQSGNSQESVTEQDSKDSTYSLSSTLTLSKADYEKHKVYACEVTHQGLSSPVTKSFNRGEC
light 2: EVQLLESGGGLVQPGGSLRLSCAASGFTFESYAMNWVRQAPGKGLEWVSRIRSKYNEYATYYADSVKGRFTISRDDSKNTLYLQMNSLRAEDTAVYYCVRASNFPSSFVSYFGYWGQGTLVTVSSASVAAPSVFIFPPSDEQLKSGTASVVCLLNNFYPREAKVQWKVDNALQSGNSQESVTEQDSKDSTYSLSSTLTLSKADYEKHKVYACEVTHQGLSSPVTKSFNRGEC
notes: 2+1 IgG CrossFab, inverted; human IgG1 Fc, knob-into-hole, PGLALA; also called P033.078 in GPRC5D-TCB format

EC50 20 h (pM), T-cell mediated lysis of GPRC5D-expressing NCI-H929 cells [1]: 0.31 pM
Kd [2]: 377 pM
koff [2]: 0.0013 s⁻¹
kon [2]: 3.46e+06 M⁻¹ s⁻¹
t1/2 [2]: 8.89 min
Kd [3]: 241 pM
koff [3]: 0.000866 s⁻¹
kon [3]: 3.61e+06 M⁻¹ s⁻¹
t1/2 [3]: 13.3 min
binding activity [%] after 2 weeks at pH 6.0/40°C [4]: 100%
binding activity [%] after 2 weeks at pH 7.4/37°C [4]: 97%
binding result [5]: binds
B2: GPRC5D-TCB, GPRC5D CD3 variant P035.093 (bispecific antibody, human IgG1, kappa, L234A L235A)
heavy 1: not shown
heavy 2: B1 heavy 2
light 1: B1 light 1
light 2: B1 light 2 with E30S, E57N, S106A, F108Y, G113A
notes: 2+1 IgG CrossFab, inverted; human IgG1 Fc, knob-into-hole, PGLALA; also called P035.093 in GPRC5D-TCB format

fold higher binding half-life than CD3orig [6]: ≤ 6 fold
Kd [7]: 600 pM
koff [7]: 0.000996 s⁻¹
kon [7]: 1.66e+06 M⁻¹ s⁻¹
t1/2 [7]: 11.6 min
Kd [8]: 370 pM
koff [8]: 0.000802 s⁻¹
kon [8]: 2.2e+06 M⁻¹ s⁻¹
t1/2 [8]: 14.4 min
binding activity [%] after 2 weeks at pH 6.0/40°C [9]: 99%
binding activity [%] after 2 weeks at pH 7.4/37°C [9]: 99%
B3: TYRP1-TCB with anti-CD3 antibody clone P033.078 (bispecific antibody, human IgG1, kappa, L234A L235A)
heavy 1: not shown
heavy 2: QVQLVQSGAEVKKPGASVKVSCKASGFNIKDYFLHWVRQAPGQGLEWMGWINPDNGNTVYAQKFQGRVTMTADTSTSTVYMELSSLRSEDTAVYYCTRRDYTYEKAALDYWGQGTLVTVSSASTKGPSVFPLAPSSKSTSGGTAALGCLVEDYFPEPVTVSWNSGALTSGVHTFPAVLQSSGLYSLSSVVTVPSSSLGTQTYICNVNHKPSNTKVDEKVEPKSCDKTHTCPPCPAPEAAGGPSVFLFPPKPKDTLMISRTPEVTCVVVDVSHEDPEVKFNWYVDGVEVHNAKTKPREEQYNSTYRVVSVLTVLHQDWLNGKEYKCKVSNKALGAPIEKTISKAKGQPREPQVCTLPPSRDELTKNQVSLSCAVKGFYPSDIAVEWESNGQPENNYKTTPPVLDSDGSFFLVSKLTVDKSRWQQGNVFSCSVMHEALHNHYTQKSLSLSP
light 1: DIQMTQSPSSLSASVGDRVTITCRASGNIYNYLAWYQQKPGKVPKLLIYDAKTLADGVPSRFSGSGSGTDFTLTISSLQPEDVATYYCQHFWSLPFTFGQGTKLEIKRTVAAPSVFIFPPSDRKLKSGTASVVCLLNNFYPREAKVQWKVDNALQSGNSQESVTEQDSKDSTYSLSSTLTLSKADYEKHKVYACEVTHQGLSSPVTKSFNRGEC
light 2: B1 light 2
notes: human IgG1 Fc, knob-into-hole, P329G L234A L235A; also called P033.078 in TCB format

EC50 20 h (pM), T-cell mediated lysis of GPRC5D-expressing NCI-H929 cells [1]: 0.87 pM
Kd [2]: 1210 pM
koff [2]: 0.00265 s⁻¹
kon [2]: 2.2e+06 M⁻¹ s⁻¹
t1/2 [2]: 4.36 min
Kd [3]: 599 pM
koff [3]: 0.00163 s⁻¹
kon [3]: 2.72e+06 M⁻¹ s⁻¹
t1/2 [3]: 7.09 min
binding activity [%] after 2 weeks at pH 6.0/40°C [4]: 100%
binding activity [%] after 2 weeks at pH 7.4/37°C [4]: 99%
binding result [5]: binds
B4: GPRC5D-TCB, GPRC5D CD3 variant P004.042 (bispecific antibody, human IgG1, kappa, L234A L235A)
heavy 1: not shown
heavy 2: B1 heavy 2
light 1: B1 light 1
light 2: B1 light 2 with T28Q, E30D, S31N, S53T, S106Q, F108Y
notes: 2+1 IgG CrossFab, inverted; human IgG1 Fc, knob-into-hole, PGLALA; also called P004.042 in GPRC5D-TCB format
